For data set [1], the target named is T1, Hfq Core (Escherichia coli, UniProt P0A6X3 2-69). Description: fluorescence polarization. A general note: In fluorescence polarisation assays a small probe gives low polarisation when free and higher when bound to something large.
Another data set deals with Hfq full length WT (Escherichia coli, UniProt P0A6X3 2-102). Put plainly: fluorescence polarization.
In a further data set the target is Sa Hfq (Staphylococcus aureus, UniProt A0A0H3JV59 1-77). Put plainly: fluorescence polarization.
Another data set addresses Hfq(2-69:Q41E) (Escherichia coli, UniProt P0A6X3 2-69, Q41E). Put plainly: fluorescence polarization.
For a further data set, the target named is Hfq(2-69:Q41A) (Escherichia coli, UniProt P0A6X3 2-69, Q41A). Put plainly: fluorescence polarization.
The next data set addresses Hfq(2-69:R16A/R17A) (Escherichia coli, UniProt P0A6X3 2-69, R16A;R17A). Description: fluorescence polarization.
The next data set concerns the target Hfq(2-69:R16A) (Escherichia coli, UniProt P0A6X3 2-69, R16A). Description: fluorescence polarization.
The target in data set [2] is T1, Hfq Core. Description: fluorescence polarization. This is another data set of the same source.
Another data set has as its target Hfq(2-69:N13A) (Escherichia coli, UniProt P0A6X3 2-69, N13A). Put plainly: fluorescence polarization.
Data set [3] deals with T2, Hfq F42W (Escherichia coli, UniProt P0A6X3 2-69, F42W). Put plainly: tryptophan fluorescence quenching.
The target in data set [4] is T3, Hfq WT (Table 3) (Escherichia coli, UniProt P0A6X3 2-69). Put plainly: fluorescence polarization.
The target of data set [5] is T2, Hfq F42W. Put plainly: tryptophan fluorescence quenching. The source holds these as a separate data set.
The target of data set [6] is T3, Hfq WT (Table 3). Description: fluorescence polarization. This is another data set of the same source.

Where two headings read alike, the source gives them in different places.

B1: xtal DNA, 30 bp with three 6-bp A-tracts (dsDNA)
DNA 1: CGGCAAAAAACGGCAAAAAACGGCAAAAAA
DNA 2: TTTTTTGCCGTTTTTTGCCGTTTTTTGCCG
B1: the Kd turned out to be 94 ± 8 nM in the data set with Hfq Core [1]; 175 ± 4.5 nM in the data set with Hfq full length WT; 6400 nM with Sa Hfq; 47.1 ± 4.7 nM in the data set with Hfq(2-69:Q41E); 300 ± 33.6 nM with Hfq(2-69:Q41A); 66.8 ± 10.6 nM in the data set with Hfq(2-69:R16A/R17A). The Kd with Hfq(2-69:R16A) amounted to 34.1 ± 7 nM; in the data set with Hfq Core [2], 4.9 ± 2.4 nM; in the data set with Hfq(2-69:N13A) it was 6 ± 2.3 nM. Also, the binding result with Hfq F42W [3] is recorded as “binds”.

B2: RacA DNA 14 bp (dsDNA)
DNA 1: TGACGCCGGCGTCA
DNA 2: TGACGCCGGCGTCA
For B2, the Kd with Hfq Core [2] came out at 16.2 ± 3.7 nM.

B3: A27 (ssRNA)
RNA: AAAAAAAAAAAAAAAAAAAAAAAAAAA
Turning to B3, the binding result with Hfq WT (Table 3) [4] is reported as “binds”.

B4: 3-base A-tract DNA (dsDNA)
DNA 1: CGGCAAACGAAACGGCAAACGAAACGGCAAACGAAA
DNA 2: TTTCGTTTGCCGTTTCGTTTGCCGTTTCGTTTGCCG
As for B4, binding with Hfq Core [2] was put at a Kd of 19.4 ± 6 nM.

B5: site A (structured_RNA)
RNA: AUUUUUUCGAAUCGAAAGGUUCA
On to B5, for which, in the data set with Hfq F42W [5], the binding result is “binds”. Also, the Kd with Hfq WT (Table 3) [6] turned out to be 22.7 ± 1.5 nM.

B6: Hairpin 2 (structured_RNA)
RNA: CAUGAUUCUUAUACGUACGACGGAAGAUGAGAAUUAUGGU
In the data set with Hfq WT (Table 3) [6], B6 had a Kd of 61.5 ± 18.3 nM. The binding result with Hfq F42W [3] was “binds”.

A word on the Kd: it is the equilibrium constant for the complex coming apart. A high value points to weaker binding.

These data come from article PMC7144919.
